# Test results taken from patent publication CN115073593A (SHANGHAI JUNSHI BIOSCIENCES CO LTD; JUNMENG BIOSCIENCES CO …, dated 2022).
# Molecular target: 生物素化的SARS-CoV-2 RBD (SARS-CoV-2, UniProt P0DTC2 319-541)
# Assay: ELISA screen, Fab culture supernatant on streptavidin-captured biotinylated RBD
row,Binder,binding result
1,"CB6-15 (重链突变库克隆) (Fab, also called CB6-15-VH; CB6-15-HC) VH: EVQLVESGGGLVQPGGSLRLSCAASGFQVNRNYMSWVRQAPGKGLEWVSVIYPGGSTFYADSVKGRFTISRDNSMNTLFLQMNSLRAEDTAVYYCARVLPMYGDYLDYWGQGTLVTVSS light: […]",binds
2,"CB6-30 (轻链突变库克隆) (Fab, V domains shown, also called CB6-30-VL; CB6-30-LC) VH: EVQLVESGGGLVQPGGSLRLSCAASGFTVSSNYMSWVRQAPGKGLEWVSVIYSGGSTFYADSVKGRFTISRDNSMNTLFLQMNSLRAEDTAVYYCARVLPMYGDYLDYWGQGTLVTVSS VL: DIVMTQSPSSLSASVGDRVTITCRASQWILPYLNWYQQKPGKAPKLLIYAASSLQSGVPSRFSGSGSGTDFTLTISSLQPEDFATYYCQQSSSSTPEYTFGQGTKLEIK",binds
3,"CB6-24 (轻链突变库克隆) (Fab, V domains shown, also called CB6-24-VL; CB6-24-LC) VH: EVQLVESGGGLVQPGGSLRLSCAASGFTVSSNYMSWVRQAPGKGLEWVSVIYSGGSTFYADSVKGRFTISRDNSMNTLFLQMNSLRAEDTAVYYCARVLPMYGDYLDYWGQGTLVTVSS VL: DIVMTQSPSSLSASVGDRVTITCRASQQISRYLNWYQQKPGKAPKLLIYAASSLQSGVPSRFSGSGSGTDFTLTISSLQPEDFATYYCQQSSSPTPEYTFGQGTKLEIK",binds
4,"CB6-20 (轻链突变库克隆) (Fab, V domains shown, also called CB6-20-VL; CB6-20-LC) VH: EVQLVESGGGLVQPGGSLRLSCAASGFTVSSNYMSWVRQAPGKGLEWVSVIYSGGSTFYADSVKGRFTISRDNSMNTLFLQMNSLRAEDTAVYYCARVLPMYGDYLDYWGQGTLVTVSS VL: DIVMTQSPSSLSASVGDRVTITCRASQAILPYLNWYQQKPGKAPKLLIYAASSLQSGVPSRFSGSGSGTDFTLTISSLQPEDFATYYCQQSYSIIPEYTFGQGTKLEIK",binds
5,"CB6-19 (轻链突变库克隆) (Fab, V domains shown, also called CB6-19-VL; CB6-19-LC) VH: EVQLVESGGGLVQPGGSLRLSCAASGFTVSSNYMSWVRQAPGKGLEWVSVIYSGGSTFYADSVKGRFTISRDNSMNTLFLQMNSLRAEDTAVYYCARVLPMYGDYLDYWGQGTLVTVSS VL: DIVMTQSPSSLSASVGDRVTITCRASQQINFYLNWYQQKPGKAPKLLIYAASSLQSGVPSRFSGSGSGTDFTLTISSLQPEDFATYYCQQSGSSLPEYTFGQGTKLEIK",binds
6,"CB6-32 (轻链突变库克隆) (Fab, V domains shown, also called CB6-32-VL; CB6-32-LC) VH: EVQLVESGGGLVQPGGSLRLSCAASGFTVSSNYMSWVRQAPGKGLEWVSVIYSGGSTFYADSVKGRFTISRDNSMNTLFLQMNSLRAEDTAVYYCARVLPMYGDYLDYWGQGTLVTVSS VL: DIVMTQSPSSLSASVGDRVTITCRASQDIDGYLNWYQQKPGKAPKLLIYAASSLQSGVPSRFSGSGSGTDFTLTISSLQPEDFATYYCQQSASPVPEYTFGQGTKLEIK",binds
7,"CB6-23 (轻链突变库克隆) (Fab, V domains shown, also called CB6-23-VL; CB6-23-LC) VH: EVQLVESGGGLVQPGGSLRLSCAASGFTVSSNYMSWVRQAPGKGLEWVSVIYSGGSTFYADSVKGRFTISRDNSMNTLFLQMNSLRAEDTAVYYCARVLPMYGDYLDYWGQGTLVTVSS VL: DIVMTQSPSSLSASVGDRVTITCRASQWIPSYLNWYQQKPGKAPKLLIYAASSLQSGVPSRFSGSGSGTDFTLTISSLQPEDFATYYCQQSKSWKPEYTFGQGTKLEIK",binds
8,"CB6-28 (轻链突变库克隆) (Fab, V domains shown, also called CB6-28-VL; CB6-28-LC) VH: EVQLVESGGGLVQPGGSLRLSCAASGFTVSSNYMSWVRQAPGKGLEWVSVIYSGGSTFYADSVKGRFTISRDNSMNTLFLQMNSLRAEDTAVYYCARVLPMYGDYLDYWGQGTLVTVSS VL: DIVMTQSPSSLSASVGDRVTITCRASQDIVSYLNWYQQKPGKAPKLLIYAASSLQSGVPSRFSGSGSGTDFTLTISSLQPEDFATYYCQQSASPTPEYTFGQGTKLEIK",binds
9,"CB6-37 (轻链突变库克隆) (Fab, V domains shown, also called CB6-37-VL; CB6-37-LC) VH: EVQLVESGGGLVQPGGSLRLSCAASGFTVSSNYMSWVRQAPGKGLEWVSVIYSGGSTFYADSVKGRFTISRDNSMNTLFLQMNSLRAEDTAVYYCARVLPMYGDYLDYWGQGTLVTVSS VL: DIVMTQSPSSLSASVGDRVTITCRASQMILPYLNWYQQKPGKAPKLLIYAASSLQSGVPSRFSGSGSGTDFTLTISSLQPEDFATYYCQQSSSATPEYTFGQGTKLEIK",binds
10,"CB6-18 (轻链突变库克隆) (Fab, V domains shown, also called CB6-18-VL; CB6-18-LC) VH: EVQLVESGGGLVQPGGSLRLSCAASGFTVSSNYMSWVRQAPGKGLEWVSVIYSGGSTFYADSVKGRFTISRDNSMNTLFLQMNSLRAEDTAVYYCARVLPMYGDYLDYWGQGTLVTVSS VL: DIVMTQSPSSLSASVGDRVTITCRASQDIHVYLNWYQQKPGKAPKLLIYAASSLQSGVPSRFSGSGSGTDFTLTISSLQPEDFATYYCQQSGSPVPEYTFGQGTKLEIK",binds
11,"CB6-22 (轻链突变库克隆) (Fab, V domains shown, also called CB6-22-VL; CB6-22-LC) VH: EVQLVESGGGLVQPGGSLRLSCAASGFTVSSNYMSWVRQAPGKGLEWVSVIYSGGSTFYADSVKGRFTISRDNSMNTLFLQMNSLRAEDTAVYYCARVLPMYGDYLDYWGQGTLVTVSS VL: DIVMTQSPSSLSASVGDRVTITCRASQRILPYLNWYQQKPGKAPKLLIYAASSLQSGVPSRFSGSGSGTDFTLTISSLQPEDFATYYCQQSSSATPEYTFGQGTKLEIK",binds
12,"CB6-25 (轻链突变库克隆) (Fab, V domains shown, also called CB6-25-VL; CB6-25-LC) VH: EVQLVESGGGLVQPGGSLRLSCAASGFTVSSNYMSWVRQAPGKGLEWVSVIYSGGSTFYADSVKGRFTISRDNSMNTLFLQMNSLRAEDTAVYYCARVLPMYGDYLDYWGQGTLVTVSS VL: DIVMTQSPSSLSASVGDRVTITCRASQNIMQYLNWYQQKPGKAPKLLIYAASSLQSGVPSRFSGSGSGTDFTLTISSLQPEDFATYYCQQSSSPKPEYTFGQGTKLEIK",binds
13,"CB6-34 (轻链突变库克隆) (Fab, V domains shown, also called CB6-34-VL; CB6-34-LC) VH: EVQLVESGGGLVQPGGSLRLSCAASGFTVSSNYMSWVRQAPGKGLEWVSVIYSGGSTFYADSVKGRFTISRDNSMNTLFLQMNSLRAEDTAVYYCARVLPMYGDYLDYWGQGTLVTVSS VL: DIVMTQSPSSLSASVGDRVTITCRASQSILQYLNWYQQKPGKAPKLLIYAASSLQSGVPSRFSGSGSGTDFTLTISSLQPEDFATYYCQQSSSPVPEYTFGQGTKLEIK",binds
14,"CB6-21 (轻链突变库克隆) (Fab, V domains shown, also called CB6-21-VL; CB6-21-LC) VH: EVQLVESGGGLVQPGGSLRLSCAASGFTVSSNYMSWVRQAPGKGLEWVSVIYSGGSTFYADSVKGRFTISRDNSMNTLFLQMNSLRAEDTAVYYCARVLPMYGDYLDYWGQGTLVTVSS VL: DIVMTQSPSSLSASVGDRVTITCRASQWIGNYLNWYQQKPGKAPKLLIYAASSLQSGVPSRFSGSGSGTDFTLTISSLQPEDFATYYCQQSTSNRPEYTFGQGTKLEIK",binds
15,"CB6-35 (轻链突变库克隆) (Fab, V domains shown, also called CB6-35-VL; CB6-35-LC) VH: EVQLVESGGGLVQPGGSLRLSCAASGFTVSSNYMSWVRQAPGKGLEWVSVIYSGGSTFYADSVKGRFTISRDNSMNTLFLQMNSLRAEDTAVYYCARVLPMYGDYLDYWGQGTLVTVSS VL: DIVMTQSPSSLSASVGDRVTITCRASQKIHQYLNWYQQKPGKAPKLLIYAASSLQSGVPSRFSGSGSGTDFTLTISSLQPEDFATYYCQQSESSKPEYTFGQGTKLEIK",binds
16,"CB6-27 (轻链突变库克隆) (Fab, V domains shown, also called CB6-27-VL; CB6-27-LC) VH: EVQLVESGGGLVQPGGSLRLSCAASGFTVSSNYMSWVRQAPGKGLEWVSVIYSGGSTFYADSVKGRFTISRDNSMNTLFLQMNSLRAEDTAVYYCARVLPMYGDYLDYWGQGTLVTVSS VL: DIVMTQSPSSLSASVGDRVTITCRASQSILPYLNWYQQKPGKAPKLLIYAASSLQSGVPSRFSGSGSGTDFTLTISSLQPEDFATYYCQQSNSPRPEYTFGQGTKLEIK",binds
17,"CB6-29 (轻链突变库克隆) (Fab, V domains shown, also called CB6-29-VL; CB6-29-LC) VH: EVQLVESGGGLVQPGGSLRLSCAASGFTVSSNYMSWVRQAPGKGLEWVSVIYSGGSTFYADSVKGRFTISRDNSMNTLFLQMNSLRAEDTAVYYCARVLPMYGDYLDYWGQGTLVTVSS VL: DIVMTQSPSSLSASVGDRVTITCRASQMILPYLNWYQQKPGKAPKLLIYAASSLQSGVPSRFSGSGSGTDFTLTISSLQPEDFATYYCQQSSSAKPEYTFGQGTKLEIK",binds
18,"CB6-31 (轻链突变库克隆) (Fab, V domains shown, also called CB6-31-VL; CB6-31-LC) VH: EVQLVESGGGLVQPGGSLRLSCAASGFTVSSNYMSWVRQAPGKGLEWVSVIYSGGSTFYADSVKGRFTISRDNSMNTLFLQMNSLRAEDTAVYYCARVLPMYGDYLDYWGQGTLVTVSS VL: DIVMTQSPSSLSASVGDRVTITCRASQQIRQYLNWYQQKPGKAPKLLIYAASSLQSGVPSRFSGSGSGTDFTLTISSLQPEDFATYYCQQSSSPTPEYTFGQGTKLEIK",binds
19,"CB6-26 (轻链突变库克隆) (Fab, V domains shown, also called CB6-26-VL; CB6-26-LC) VH: EVQLVESGGGLVQPGGSLRLSCAASGFTVSSNYMSWVRQAPGKGLEWVSVIYSGGSTFYADSVKGRFTISRDNSMNTLFLQMNSLRAEDTAVYYCARVLPMYGDYLDYWGQGTLVTVSS VL: DIVMTQSPSSLSASVGDRVTITCRASQRIEQYLNWYQQKPGKAPKLLIYAASSLQSGVPSRFSGSGSGTDFTLTISSLQPEDFATYYCQQSASSSPEYTFGQGTKLEIK",binds
20,"CB6-33 (轻链突变库克隆) (Fab, V domains shown, also called CB6-33-VL; CB6-33-LC) VH: EVQLVESGGGLVQPGGSLRLSCAASGFTVSSNYMSWVRQAPGKGLEWVSVIYSGGSTFYADSVKGRFTISRDNSMNTLFLQMNSLRAEDTAVYYCARVLPMYGDYLDYWGQGTLVTVSS VL: DIVMTQSPSSLSASVGDRVTITCRASQNILPYLNWYQQKPGKAPKLLIYAASSLQSGVPSRFSGSGSGTDFTLTISSLQPEDFATYYCQQSSSAVPEYTFGQGTKLEIK",binds
21,"CB6-36 (轻链突变库克隆) (Fab, V domains shown, also called CB6-36-VL; CB6-36-LC) VH: EVQLVESGGGLVQPGGSLRLSCAASGFTVSSNYMSWVRQAPGKGLEWVSVIYSGGSTFYADSVKGRFTISRDNSMNTLFLQMNSLRAEDTAVYYCARVLPMYGDYLDYWGQGTLVTVSS VL: DIVMTQSPSSLSASVGDRVTITCRASQAILPYLNWYQQKPGKAPKLLIYAASSLQSGVPSRFSGSGSGTDFTLTISSLQPEDFATYYCQQSSSALPEYTFGQGTKLEIK",binds
22,"CB6-17 (轻链突变库克隆) (Fab, V domains shown, also called CB6-17-VL; CB6-17-LC) VH: EVQLVESGGGLVQPGGSLRLSCAASGFTVSSNYMSWVRQAPGKGLEWVSVIYSGGSTFYADSVKGRFTISRDNSMNTLFLQMNSLRAEDTAVYYCARVLPMYGDYLDYWGQGTLVTVSS VL: DIVMTQSPSSLSASVGDRVTITCRASQVINHYLNWYQQKPGKAPKLLIYAASSLQSGVPSRFSGSGSGTDFTLTISSLQPEDFATYYCQQSGSPTPEYTFGQGTKLEIK",binds
